# Assay results reported in publication PMC10024175, “Structuring supramolecular hyaluronan hydrogels via peptide self-assembly for modulating the cell microenvironment” (Materials Today Bio, 2023).
# Key:
# [1] = target: the molecule itself; assay: FTIR spectroscopy; 10 mM peptide in D2O, pH 7, NaCl 0, 50, 100, 200, 300 and 400 mM; beta-sheet formation read as self-assembly
# [2] = target: the molecule itself; assay: transmission electron microscopy; 1 mM peptide in deionized water, pH 11 (NH4OH), negative staining with uranyl acetate, dried on the grid
# [3] = target: the molecule itself; assay: zeta potential; 1 mM peptide in ultrapure water, neutral pH; self-association of the peptide
Protein,binding result [2],other results
"Ac-KIKIKIKIKIKIK-NH2 (rationally designed cationic amphipathic peptide; Synthesised on a rink amide MBHA resin, so the C-terminus is probably an amide (surmised); source: synthetic peptide (Fmoc solid-phase synthesis, purified by preparative RP-HPLC)) [(KI)6K peptide]",–,binding result [1]: binds
"Ac-KIKIK-NH2 (rationally designed cationic amphipathic peptide; Synthesised on a rink amide MBHA resin, so the C-terminus is probably an amide (surmised); source: synthetic peptide (Fmoc solid-phase synthesis, purified by preparative RP-HPLC)) [(KI)2K peptide]",binds,–
"Ac-KIKIKIK-NH2 (rationally designed cationic amphipathic peptide; Synthesised on a rink amide MBHA resin, so the C-terminus is probably an amide (surmised); source: synthetic peptide (Fmoc solid-phase synthesis, purified by preparative RP-HPLC)) [(KI)3K peptide]",binds,–
"Ac-KIKIKIKIKIK-NH2 (rationally designed cationic amphipathic peptide; Synthesised on a rink amide MBHA resin, so the C-terminus is probably an amide (surmised); source: synthetic peptide (Fmoc solid-phase synthesis, purified by preparative RP-HPLC)) [(KI)5K peptide]",–,binding result [3]: binds
"Ac-KIKIKIKIK-NH2 (rationally designed cationic amphipathic peptide; Synthesised on a rink amide MBHA resin, so the C-terminus is probably an amide (surmised); source: synthetic peptide (Fmoc solid-phase synthesis, purified by preparative RP-HPLC)) [(KI)4K peptide]",binds,–
